Data as given in article PMC3464228.

Biological target: purified human fibrinogen (human) (UniProt P02671)
UniProt P02671, sequence (P02671 36-866, chain 1 of 3): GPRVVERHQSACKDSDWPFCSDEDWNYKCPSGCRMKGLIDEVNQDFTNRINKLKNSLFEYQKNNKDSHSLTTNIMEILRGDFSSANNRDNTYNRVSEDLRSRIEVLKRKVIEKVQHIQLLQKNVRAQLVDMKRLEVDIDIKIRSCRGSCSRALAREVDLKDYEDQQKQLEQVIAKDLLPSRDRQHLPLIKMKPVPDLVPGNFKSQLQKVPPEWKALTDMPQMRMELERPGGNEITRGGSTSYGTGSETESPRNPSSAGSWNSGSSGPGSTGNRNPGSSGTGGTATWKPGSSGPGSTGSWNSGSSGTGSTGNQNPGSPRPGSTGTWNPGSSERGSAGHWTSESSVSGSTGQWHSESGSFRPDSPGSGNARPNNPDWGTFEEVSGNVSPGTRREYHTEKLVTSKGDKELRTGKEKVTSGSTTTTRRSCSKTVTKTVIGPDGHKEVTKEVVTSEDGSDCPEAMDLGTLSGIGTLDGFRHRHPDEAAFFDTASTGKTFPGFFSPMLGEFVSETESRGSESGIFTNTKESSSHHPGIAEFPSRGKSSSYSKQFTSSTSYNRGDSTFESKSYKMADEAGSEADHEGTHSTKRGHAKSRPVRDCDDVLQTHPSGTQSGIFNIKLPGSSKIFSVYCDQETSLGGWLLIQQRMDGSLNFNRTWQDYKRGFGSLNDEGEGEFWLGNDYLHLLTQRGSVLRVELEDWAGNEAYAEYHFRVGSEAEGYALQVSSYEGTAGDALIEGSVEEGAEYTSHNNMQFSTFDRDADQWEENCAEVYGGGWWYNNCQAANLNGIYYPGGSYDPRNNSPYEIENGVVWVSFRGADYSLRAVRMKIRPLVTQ
UniProt P02671, sequence (P02675 45-491, chain 2 of 3, further chain): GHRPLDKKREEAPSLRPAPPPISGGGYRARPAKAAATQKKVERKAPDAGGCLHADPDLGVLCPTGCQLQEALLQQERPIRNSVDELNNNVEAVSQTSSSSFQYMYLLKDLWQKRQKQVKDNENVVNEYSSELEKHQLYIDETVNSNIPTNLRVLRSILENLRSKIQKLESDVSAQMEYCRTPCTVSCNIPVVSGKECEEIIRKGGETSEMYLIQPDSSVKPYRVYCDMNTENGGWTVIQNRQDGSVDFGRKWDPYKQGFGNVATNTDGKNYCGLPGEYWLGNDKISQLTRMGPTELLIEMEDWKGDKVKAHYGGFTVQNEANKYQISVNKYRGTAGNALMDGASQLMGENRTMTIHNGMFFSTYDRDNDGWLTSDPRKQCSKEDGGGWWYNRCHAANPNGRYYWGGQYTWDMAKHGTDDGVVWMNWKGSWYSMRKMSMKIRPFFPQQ
UniProt P02671, sequence (P02679 27-453, chain 3 of 3, further chain): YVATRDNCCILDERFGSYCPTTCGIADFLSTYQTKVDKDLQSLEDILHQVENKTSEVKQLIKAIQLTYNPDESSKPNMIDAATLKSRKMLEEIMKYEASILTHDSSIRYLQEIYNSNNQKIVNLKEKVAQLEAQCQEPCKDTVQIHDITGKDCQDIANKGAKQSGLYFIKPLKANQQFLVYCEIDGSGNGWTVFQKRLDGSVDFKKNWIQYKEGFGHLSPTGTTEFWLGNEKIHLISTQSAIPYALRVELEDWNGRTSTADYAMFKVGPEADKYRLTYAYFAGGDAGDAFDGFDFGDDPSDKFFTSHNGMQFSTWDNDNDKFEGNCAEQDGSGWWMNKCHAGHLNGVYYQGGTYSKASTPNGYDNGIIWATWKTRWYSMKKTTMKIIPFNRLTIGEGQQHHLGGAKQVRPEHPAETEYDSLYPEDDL

## serine-rich repeat glycoprotein Srr1 of Streptococcus agalactiae (native, surface expressed) (natural protein)
  adherence of GBS strain COH31 to immobilized human fibrinogen (0.1 µM per well), percent of inoculum bound (% of inoculum): 16
